Measured values reported in patent US20030157533A1, “Nucleic acid labeling by Thermoanaerobacter thermohydrosulfuricus DNA polymerase I variants” (priority 2001, published 2003).
Positions count from the first letter of the chain named. Names may count otherwise. One block for each molecule: values may come before it.

Assays:
Format in all cases: biochemical
[1] = system: human skeletal muscle mRNA; test: cDNA labeling using Cy3 and Cy5-dUTP, microarray (FIG. 10); conditions: Cy3-dUTP or Cy5-dUTP, 50 degrees C.
Protocol: (§1) A typical 20 μl reaction Cy3 or Cy5 reaction had 1 μg of human skeletal muscle mRNA, oligo dT(25) and random nonamer primers and TtsFYDR polymerase enzyme in 1×reaction buffer (50 mM Tris, pH 8.0, 1 mM DDT, 40 mM KC, 100 uM dA,G and CTP and 50 um each of TTP and Cy3-dUTP or Cy5-dUTP depending on the reaction). Control mRNAs (APBiotech Inc.) of known sequence compositions were included in various concentrations to serve as dynamic range and gene expression ratio controls. Tts reactions were carried out at temperatures from 50 degrees C. Template RNA was hydrolyzed by alkali treatment and neutralized with HEPES.
(§2) Probes were purified using MultiScreen filters (Millipore) and quantified by spectrophotometry. Glass slides containing human cDNA gene targets were hybridized with equal amounts (30 pmol each) of Cy3 and Cy5 labeled cDNA probes. Slides were scanned using a GenePix® (Axon) scanner and quantified using ImageQuant software.

[2] = system: defined DNA template-DNA primer; test: Single nucleotide incorporation of dye-dCTP during DNA dependent DNA synthesis (FIG. 13); conditions: for incorporation of Cy3.5-dCTP (qualitative, P+1 band): lower concentrations (0.2 uM or lower) of dye-dCTP
Protocol: (§3) Optimized 1×buffer compositions for Reverse Transcriptase (RNA dependent DNA Polymerase) and DNA Polymerase (DNA dependent DNA polymerase) reactions for all variants of Tts Pol I are as follows. Tris, pH 8.0 (50 mM), KCl (40 mM), MgCl2 (3 mM), DTT (1 mM), DNA or RNA template (as needed), primer (5 to 50 femto mols), enzyme 0.5 to 1 units, dNTP or dNTP analog (varying concentrations as needed). In standard synthesis reactions, when full-length synthesis is monitored, 50 uM of all 4 dNTPs are included. Typical reaction volume is 10 ul. Reaction temperature was kept between 37-60 C. depending on the experimental needs. Reaction time was limited to 10 minutes for single nucleotide incorporation studies. Time was varied as needed for the purpose of the experiments, sometimes up to 1 hour if longer extensions are monitored.
Primer extension was monitored using a defined DNA template-DNA primer.
In this experiment the relative efficiencies of incorporation of dye-CTP (Cy3.5-dCTP) was investigated. Three enzyme preparations were tested ΔTts, ΔTtsF412Y, and ΔTtsF412YD426R
Defined DNA shown below served as the template. A P-33 labeled primer (DNA 25 mer) was annealed to the template. Reactions were performed with varying concentrations of either Cy3.5-dCTP or dCTP alone. Inclusion of only one dNTP allowed incorporation of the next correct nucleotide alone. The sequence of the template-primer that allowed for the examination of single nucleotide “C” incorporation is shown below.
Lanes 1, 2, 3, 4 and 5 contain 20, 2, 0.2, 0.02 and 0 uM dye-dCTP. Lane 5 has no enzyme, to show the integrity of the starting p-33 labeled primer. Quantification of the single nucleotide extension product is one way to tell if DR change in the enzyme led to any consequence. “P” indicates a radio labeled primer. “P+1” represents the elongated product by a single nucleotide or nucleotide analog. P+1 migrates slowly with the dye-dNTP conjugate. Note that the migration of Cy3.5-dCTP containing band travel slowly on the gel compared to dCMP extended products. […] P+1 product is achieved between 10-100 fold less concentration of dye-dCTP with the enzyme having the DR change. Essentially, incorporation is achieved at a much lower concentration of dye-dNMP compared to the wild type enzyme. It is evident that the DR enzyme was able to incorporate Cy3.5-dCTP at concentrations as low as 0.2 uM or even lower.

[3] = system: human skeletal muscle mRNA; test: cDNA labeling using Cy3 and Cy5-dCTP, microarray (FIG. 9); conditions: Cy3-dCTP or Cy5-dCTP, 50 degrees C.
Protocol: as §1, with “TTP” for “CTP”, “CTP” for “TTP”, “Cy3-dCTP” for “Cy3-dUTP”, “Cy5-dCTP” for “Cy5-dUTP”
as §2

[4] = system: Globin mRNA template annealed to P-33 labeled primer; test: Single nucleotide incorporation of Cy3.5-dCTP or dCTP on RNA template (reverse transcriptase reaction, FIG. 7); conditions: for incorporation of Cy3.5-dCTP (qualitative, P+1 band): lower concentrations (0.2 uM or lower) of dye-CTP
Protocol: The experiment shown in FIG. 7 investigates the relative efficiencies of incorporation of dye-CTP (Cy3.5-dCTP) and dCTP. Three enzyme preparations ΔTts, ΔTts F412Y, ΔTtsF412YD426R were analyzed in this experiment.
as §3
The experiment shown in FIG. 7 investigates the relative efficiencies of incorporation of dye-CTP (Cy3.5-dCTP) and dCTP. Three enzyme preparations ΔTts, ΔTtsFY, ΔTtsF412YD426R were analyzed in this experiment.
In FIG. 7, Globin mRNA served as the template. A 5′ P-33 labeled primer (DNA 25-mer) was annealed to the template. Reactions were performed with varying concentrations of either Cy3.5-dCTP or dCTP alone. Inclusion of only one dNTP allowed incorporation of the next correct nucleotide alone. The sequence of the template-primer that allowed for the examination of single nucleotide “C” incorporation is shown below.
Lanes 1,2,3 and 4 contain 20, 2, 0.2, and 0.02 uM of dNTP or dye-dNTP. Lane with no label has no enzyme, to show the integrity of the starting P-33 labeled primer. Quantification of the single nucleotide extension product is one way to tell if DR change to in the enzyme led to any consequence. “P” indicates a radio labeled primer. “P+1” represents the elongated product by a single nucleotide or nucleotide analog. P+1 migrates slowly with the dye-dNTP conjugate. Note that the migration of Cy3.5 dCMP containing bands travel slowly on the gel compared to dCTP extended products. […] Essentially, incorporation is achieved at lower concentrations (less than 10 times) of dye-dNTP compared to that of the wild type polymerase. It is evident that the DR enzyme was able to incorporate Cy3.5 dCTP at concentrations as low as 0.2 uM (Cy3.5 dCTP) or even lower. […] In this experiment the template-primer is a mRNA annealed to radio labeled primer. Extension is monitored qualitatively as P+1 for the natural nucleotides and P+1* for dye labeled nucleotide. This is a promising first observation for potential use in microarray applications for cDNA probe labeling.

[5] = system: human skeletal muscle mRNA; test: cDNA labeling using Cy3/Cy5-dCTP over a wide reaction temperature range, microarray (FIGS. 14a and b); conditions: reaction temperatures 37, 42, 45, 50, 55, 60 and 65 degrees; normalization factor of 2
Protocol: A 20 μl reaction Cy3 or Cy5 reaction had 1 μg of human skeletal muscle mRNA, oligo dT(25) and random nonamer primers and TtsFYDR polymerase enzyme in 1×reaction buffer (50 mM Tris, pH 8.0, 1 mM DDT, 40 mM KC, 100 uM dA,G and TTP and 50 um each of CTP and Cy3-dCTP or Cy5-dCTP depending on the reaction). Control mRNAs (APBiotech Inc.) of known sequence compositions were included in various concentrations to serve as dynamic range and gene expression ratio controls. Tts reactions were carried out at temperatures from 37, 42, 45, 50, 55, 60 and 65 degrees. For Superscript II, cDNA synthesis reactions were carried out at 42 C. (Life Technologies). Template RNA was hydrolyzed by alkali treatment and neutralized with HEPES.
Probes were purified using MultiScreen filters (Millipore) and quantified by spectrophotometry. Glass slides containing human cDNA gene targets were hybridized with equal amounts (30 pmol each) of Cy3 and Cy5 labeled cDNA probes. Slides were scanned using a GenePix® (Axon) scanner and quantified using ImageQuant software. A normalization factor of 2 (due to differences in the excitation efficiencies of Cy3 and Cy5) was applied to the observed ratio of raw flourescence signal. The figure illustrates precise determination of gene expression differences in Cy3 and Cy5 reactions.

Globin mRNA = test: Direct RNA sequencing (FIG. 8); conditions: compared to retroviral reverse transcriptases
Excerpt: Globin mRNA served as a template. The 50-mer DNA was used a primer. Standard sequencing components in Amersham Pharmacia Thermo Sequenase kit were employed for sequencing. P-33 labeled terminators (ddNTP) were obtained from Amersham Pharmacia Biotech. Post-sequencing reaction products were separated on 6% urea-polyacrylamide gels. AMV, Avian Myeloblastosis virus RT.

- concentration of Cy3.5-dCTP at which the enzyme was able to incorporate [2]: ≤ 0.2 µM
- concentration of Cy3.5 dCTP at which the enzyme was able to incorporate ([4]; 10 min single nucleotide incorporation): ≤ 0.2 µM
- fold less concentration of dCTP at which P+1 product is achieved ([4]; dCTP, compared with enzymes without the DR change): 10-100 fold
- lower concentration of dye-dNTP at which incorporation is achieved compared to wild type polymerase ([4]; dye-CTP (Cy3.5-dCTP)): less than 10 times
B1: ΔTtsF412YD426R: exonuclease deficient truncated Tts DNA polymerase I with F412Y and D426R changes (SEQ ID No. 7) (protein, listed as Thermoanaerobacter thermohydrosulfuricus)
chain: MYKFLIIDGSSLMYRAYYALPMLTTSEGLPTNALYGFTMMLIKLIEEEKPDYIAIAFDKKAPTFRHKEYQDYKATRQAMPEELAEQVDYLKEIIDGFNIKTLELEGYEADDIIGTISKLAEEKGMEVLVVTGDRDALQLVSDKVKIKISKKGITQMEEFDEKAILERYGITPQQFIDLKGLMGDKSDNIPGVPNIGEKTAIKLLKDFGTIENLIQNLSQLKGKIKENIENNKELAIMSKRLATIKRDIPIEIDFEEYKVKKFNEEKLLELFNKLEFFSLIDNIKKESSIEIVDNHKVEKWSKVDIKELVTLLQDNRNIAFYPLIYEGEIKKIAFSFGKDTVYIDVFQTEDLKEIFEKEDFEFTTHEIKDFLVRLSYKGIECKSKYIDTAVMAYLLNPSESNYDLDRVLKKYLKVDVPSYEGIFGKGRDKKKIEEIDENILADYICSRCVYLFDLKEKLMNFIEEMDMKKLLLEIEMPLVEVLKSMEVSGFTLDKEVLKELSQKIDDRIGEILDKIYKEAGYQFNVNSPKQLSEFLFEKLNLPVIKKTKTGYSTDSEVLEQLVPYNDIVSDIIEYRQLTKLKSTYIDGFLPLMDENNRVHSNFKQMVTATGRISSTEPNLQNIPIREEFGRQIRRAFIPRSRDGYIVSADYSQIELRVLAHVSGDEKLIESFMNNEDIHLRTASEVFKVPMEKVTPEMRRAAKAVNYGIIYGISDYGLSRRLKISRKEAKEYINNYFERYKGVKDYIEKIVRFAKENGYVTTIMNRRRYIPEINSRNFTQRSQAERLAMNAPIQGSAADIIKMAMVKVYNDLKKLKLKSKLILQVHDELVVDTYKDEVDIIKKILKENMENVVQLKVPLVVEIGVGPNWFLAK
- incorporation of Cy3 versus Cy5 in cDNA probes [1]: near even incorporation of Cy3 and Cy5
- fold less concentration of dye-dCTP at which P+1 product is achieved ([2]; dye-dCTP, compared with enzymes without the DR change): 10-100 fold
- incorporation of Cy3 versus Cy5 in cDNA probes [3]: near even incorporation of Cy3 and Cy5
- normalized observed ratios of Cy3/Cy5 signal versus target ratios [5]: very close to the target ratios

- incorporation of Cy3.5-dCTP (qualitative, P+1 band) [4]: relatively poor incorporation
B2: D enzyme: 5′-3′ exonuclease deficient amino-terminally truncated Tts DNA polymerase I with unaltered aspartate at 426 (SEQ ID No. 3) (protein, listed as Thermoanaerobacter thermohydrosulfuricus)
chain: B1 chain with Y706F, R720D
- incorporation of Cy3.5-dCTP (qualitative, P+1 band) [2]: relatively poor incorporation

- incorporation of Cy3.5-dCTP (qualitative, P+1 band) [4]: decreased incorporation
B3: Tts F412Y: exonuclease deficient truncated Tts DNA polymerase I with F to Y change at position 412 (SEQ ID No. 5) (protein, listed as Thermoanaerobacter thermohydrosulfuricus)
chain: B1 chain with R720D
- incorporation of Cy3.5-dCTP (qualitative, P+1 band) [2]: decreased incorporation
- quality of sequence information from short stretches of RNA (Globin mRNA): excellent sequence information
